Assay results from patent US11491212.

Target: Factor X, P00742
Sequence (P00742 whole entry, looked up): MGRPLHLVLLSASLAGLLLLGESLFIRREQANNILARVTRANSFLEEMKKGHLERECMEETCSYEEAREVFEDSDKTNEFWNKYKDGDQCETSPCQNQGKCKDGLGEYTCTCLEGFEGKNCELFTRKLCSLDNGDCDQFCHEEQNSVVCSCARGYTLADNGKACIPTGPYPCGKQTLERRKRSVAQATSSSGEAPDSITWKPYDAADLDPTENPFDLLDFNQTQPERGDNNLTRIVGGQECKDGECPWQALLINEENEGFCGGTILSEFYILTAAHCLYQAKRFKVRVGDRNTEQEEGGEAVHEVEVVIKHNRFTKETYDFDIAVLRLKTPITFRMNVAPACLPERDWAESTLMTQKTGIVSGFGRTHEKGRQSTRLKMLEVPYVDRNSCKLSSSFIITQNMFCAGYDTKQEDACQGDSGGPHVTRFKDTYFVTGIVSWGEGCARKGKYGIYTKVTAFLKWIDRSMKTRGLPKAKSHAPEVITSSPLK

B1: FIXa-Y155F/K247N/N249S/R318Y/R403E (protein)
chain 1: not shown
chain 2: not shown
For B1, which “% of WT kcat/KM” value is on record?
The value was 34%.

What about the KM of the same protein?
Its KM is 0.109 µM.

And the kcat/KM?
The kcat/KM was 1.6e+07 M⁻¹ s⁻¹.

B2: FIXa-Y155F/K247N/N249S/R318Y/E410N (protein)
chain 1: not shown
chain 2: not shown
B2 was tested. Which “% of WT kcat/KM” value did it give?
Its value is 155%.

And the KM?
The KM was 0.0488 µM.

And the kcat/KM?
Its kcat/KM is 7.2e+07 M⁻¹ s⁻¹.

B3: FIXa-Y155F/K247N/N249S/R338E/R403E (protein)
chain 1: not shown
chain 2: not shown
Which KM does the source give for B3 here?
The KM was 0.0409 µM.

B4: FIXa-Y155F/K247N/N249S/R338E/T343R (protein)
chain 1: not shown
chain 2: not shown
B4 was tested. Which KM did it give?
The KM was 0.0153 µM.

B5: FIXa-Y155F/K247N/N249S/R318Y/R338E/T343R/E410N (protein)
chain 1: not shown
chain 2: not shown
B5 was tested. Which KM did it give?
Its KM is 0.0177 µM.

B6: FIXa K228N/R338E/R403E (mature FIX numbering) (protein)
chain 1: not shown
chain 2: not shown
Which “% of WT kcat/KM” value does the source give for B6 here?
Its value is 108%.

B7: FIXa R318Y/R338E/E410N (mature FIX numbering) (protein)
chain 1: not shown
chain 2: not shown
With B7 as the protein, how does the “% of WT kcat/KM” value read?
Its value is 770%.

B8: FIXa-Y155F/K247N/N249S/N260S/R318Y/R338E/R403E/E410N (protein)
chain 1: not shown
chain 2: not shown
How did the kcat/KM turn out when B8 was run?
The kcat/KM was 5.7e+07 M⁻¹ s⁻¹.

B9: FIXa-R318Y/T343R/R403E/E410N (protein)
chain 1: not shown
chain 2: not shown
With B9 as the protein, how does the kcat/KM read?
The kcat/KM was 5.8e+07 M⁻¹ s⁻¹.

B10: FIXa-Y155F/R338E/T343R/R403E/E410N (protein)
chain 1: not shown
chain 2: not shown
With B10 as the protein, how does the kcat/KM read?
The kcat/KM was 2.4e+08 M⁻¹ s⁻¹.

B11: FIXa-Y155F/K247N/N249S/R318Y/R338E/T343R/R403E/E410N (protein)
chain 1: not shown
chain 2: not shown
B11 was tested. Which kcat/KM did it give?
Its kcat/KM is 4e+08 M⁻¹ s⁻¹.

B12: FIXa-K228N/I251S/R318Y/R338E/R403E/E410N (protein)
chain 1: not shown
chain 2: not shown
With B12 as the protein, how does the kcat/KM read?
The kcat/KM was 2.1e+08 M⁻¹ s⁻¹.

B13: FIXa-Y155F/K228N/I251S/R318Y/R338E/R403E/E410N (protein)
chain 1: not shown
chain 2: not shown
Which kcat/KM does the source give for B13 here?
The kcat/KM was 1.4e+08 M⁻¹ s⁻¹.

B14: FIXa-N260S/R318Y/R338E/T343R/R403E/E410N (protein)
chain 1: not shown
chain 2: not shown
With B14 as the protein, how does the kcat/KM read?
Its kcat/KM is 2.9e+08 M⁻¹ s⁻¹.
